From patent US20250145718A1 (ABL BIO, published 2025) come the findings set out here.

Experiment [1] deals with PD-L1 (Biacore kinetics, Example 1.5) (UniProt Q9NZQ7 19-238, limits assumed). In words: SPR (Biacore), affinity ranking.
The target in experiment [2] is T1, 4-1BB expressed on Jurkat cells (4-1BB-Jurkat cells; GloResponse NFkB-luc2/4-1BB Jurkat cell line) (human, UniProt Q07011 24-255). In words: cell-based or functional assay.
For experiment [3], the target named is T2, 4-1BB (Octet Red 96 kinetics, Example 2.2(3)) (human, UniProt Q07011 24-186, limits assumed).
T2 construct: also called human 4-1BB
Put plainly: BLI (Octet Red 96), affinity ranking. An excerpt: To explore the binding kinetics of the humanized antibody, this example performed the affinity ranking by using Octet Red 96.

Another experiment concerns the target T3, human 4-1BB-Fc protein (human, UniProt Q07011 24-186, limits assumed).
T3 construct: not shown: Fc part of the fusion
Put plainly: ELISA, plate coated with human 4-1BB-Fc, detection with anti-human IgG-HRP, OD 450-630 nm. The protocol: To evaluate the antigen binding activity, the antibody candidates were subjected to ELISA test. Briefly, microtiter plates were coated with human 4-1BB-Fc protein at 0.1 μg/ml in PBS, 100 μl/well at 4° C. overnight, then blocked with 100 μl/well of 5% BSA. […] The plates were washed with PBS/Tween and then incubate with goat-anti-human IgG antibody conjugated with Horse Radish Peroxidase (HRP) for 1 hour at RT. After washing, the plates were developed with TMB substrate and analyzed by spectrophotometer at OD 450-630 nm.

Experiment [4] has as its target T1, 4-1BB expressed on Jurkat cells …. In words: cell-based or functional assay. This is another data set of the same source.
For experiment [5], the target named is T4, human PD-L1-Fc protein (Sinobio, 10084-H02H) (human, UniProt Q9NZQ7 19-239).
T4 construct: Purchased reagent; not shown: Fc part of the purchased fusion
T4 sequence (Q9NZQ7 19-239): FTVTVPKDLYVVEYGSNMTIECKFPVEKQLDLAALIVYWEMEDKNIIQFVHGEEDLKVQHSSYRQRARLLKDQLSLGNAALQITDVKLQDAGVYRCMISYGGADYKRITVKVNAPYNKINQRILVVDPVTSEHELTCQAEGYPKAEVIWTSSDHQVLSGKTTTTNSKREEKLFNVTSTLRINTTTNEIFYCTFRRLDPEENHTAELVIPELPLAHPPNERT
Put plainly: DACE (dual antigen capture ELISA): plate coated with human PD-L1-Fc, then bispecific, then human 4-1BB-His, anti-His HRP. The protocol:
(§1) Briefly, microtiter plates were coated with 100 ng/well of human PD-L1-Fc protein (Sinobio, 10084-H02H) in PBS at 4° C. overnight, then blocked with 100 μl/well of 1% BSA for 2 hours at 37° C. Three-fold dilutions of each of the BsAbs starting from 100 nM were added to each well and incubated for 2 hours at 37° C. The plates were washed with PBS/Tween and then incubate with 50 ng/well of human 4-1BB-His protein (Sinobio, 16498-H08H) in 1% BSA for 1 hour at 37° C. The plates were washed with PBS/Tween and then incubate with Anti-His HRP (Roche, Cat: 11965085001) for 1 hour at 37° C. After washing, the plates were developed with TMB substrate and analyzed by spectrophotometer at OD 450-650 nm.

In experiment [6] the target is T4, human PD-L1-Fc protein (Sinobio, …). In words: DACE after incubation in human serum for 3, 7, 14 days at 37 C. On the procedure: as §1, with “Binding activity was analyzed to DACE (Dual antigen captured ELISA) test. Briefly,” for “Briefly,”
In experiment [7] the target is T1, 4-1BB expressed on Jurkat cells …. Put plainly: cell-based or functional assay. This is another data set of the same source.
Experiment [8] has as its target T5, human 4-1BB-His protein (Sinobio, 16498-H08H) (human, UniProt Q07011 24-186).
T5 construct: Purchased reagent; not shown: His tag of the purchased protein
In words: DACE (dual antigen capture ELISA): bispecific captured on coated human PD-L1-Fc binds soluble human 4-1BB-His, detected with anti-His HRP. On the procedure:
as §1

Experiment [9] addresses T4, human PD-L1-Fc protein (Sinobio, …). In words: DACE (dual antigen capture ELISA): bispecific titrated on coated human PD-L1-Fc; signal also needs binding of human 4-1BB-His (anti-His HRP). The protocol: as §1
For orientation: An ELISA detects its analyte on a solid surface through an enzyme-linked reagent.

For experiment [10] the target is unchanged. In words: DACE after incubation in human serum at 37 C for 0, 3, 7 or 14 days: bispecific titrated on coated human PD-L1-Fc; signal also needs binding of human 4-1BB-His (anti-His HRP). The protocol:
as §1, with “Binding activity was analyzed to DACE (Dual antigen captured ELISA) test. Briefly,” for “Briefly,”

For experiment [11], the target named is T5, human 4-1BB-His protein (Sinobio, …). In words: DACE after incubation in human serum for 3, 7, 14 days at 37 C. On the procedure:
as §1, with “Binding activity was analyzed to DACE (Dual antigen captured ELISA) test. Briefly,” for “Briefly,”

In general, Kd refers to the free concentration of one partner at which half of the binding sites on the other are occupied at equilibrium, for simple one-to-one binding. The koff is a measure of how fast the partners let go of each other. What is called kon is a measure of how fast the partners come together. Read a low kon as slow association. By EC50 (read off the curve) is commonly meant the midpoint of the concentration-response curve.

Changes are numbered by the printed parent chain. Names and notes keep the numbering of the source. Where two headings read alike, the source gives them in different places.

Sequence of PD-L1 (Biacore kinetics, Example 1.5) (Q9NZQ7 19-238 limits assumed): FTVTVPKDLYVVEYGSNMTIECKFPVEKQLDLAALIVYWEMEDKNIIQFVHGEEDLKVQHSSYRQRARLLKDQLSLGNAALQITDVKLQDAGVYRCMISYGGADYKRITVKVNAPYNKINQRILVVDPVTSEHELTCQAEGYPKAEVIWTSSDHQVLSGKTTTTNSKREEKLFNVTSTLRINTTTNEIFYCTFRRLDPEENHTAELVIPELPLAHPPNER
T1 sequence (Q07011 24-255 limits assumed): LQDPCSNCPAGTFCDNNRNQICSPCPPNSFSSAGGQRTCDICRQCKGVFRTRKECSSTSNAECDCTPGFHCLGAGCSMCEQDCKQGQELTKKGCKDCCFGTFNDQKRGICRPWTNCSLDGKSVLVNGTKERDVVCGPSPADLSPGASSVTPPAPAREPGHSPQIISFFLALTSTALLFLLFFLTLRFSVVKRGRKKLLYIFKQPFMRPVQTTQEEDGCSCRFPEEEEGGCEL

B1: H12 (Hu1210-41; Hu1210 VH.4d x Hu1210 VK.1) (antibody, V domains shown)
VH: EVQLVESGGGLVQPGGSLRLSCAASGFTFSSYDMSWVRQAPGKSLEWVATISDAGGYIYYSDSVKGRFTISRDNAKNSLYLQMNSLRDEDTAVYICAREFGKRYALDYWGQGTTVTVSS
VL: DIQMTQSPSSLSASVGDRVTITCKASQDVTPAVAWYQQKPGKAPKLLIYSTSSRYTGVPSRFSGSGSGTDFTFTISSLQPEDIATYYCQQHYTTPLTFGQGTKLEIK
notes: also called WT (H12)
In [1], B1 returned a Kd of 6.12 nM, a koff of 0.000436 s⁻¹ and a kon of 71200 M⁻¹ s⁻¹.

B2: B6 (anti-PD-L1 clone derived from Hu1210-41) (antibody, V domains shown)
VH: B1 VH with S61R, F100L, G101P, K102W
VL: B1 VL
In experiment [1], B2 displayed a Kd of 4.25 nM, a koff of 0.000418 s⁻¹ and a kon of 98300 M⁻¹ s⁻¹.

B3: 41B01 (anti-4-1BB monoclonal antibody) (antibody, V domains shown)
VH: EVQLLESGGGLVQPGGSLRLSCAASGFTFSSYDMSWVRQAPGKGLEWVSWISYSGGSIYYADSVKGRFTISRDNSKNTLYLQMNSLRAEDTAVYYCARDGQRNSMREFDYWGQGTLVTVSS
VL: QSVLTQPPSASGTPGRRVTISCSGSSSNIGNNYVTWYQQLPGTAPKLLIYADSHRPSGVPDRFSGSKSGTSASLAISGLRSEDEADYYCATWDYSLSGYVFGGGTKLTVL
notes: Detected with anti-human IgG, so it was tested as a human IgG
Turning to B3, in experiment [2], the “EC50 (read off the curve), NFkB-luc2/4-1BB Jurkat reporter, Fc-crosslinked antibody” value was ~4 nM. For the same molecule, in experiment [3], the affinity, expressed as Kd, was 0.18 nM; the koff is 0.000119 s⁻¹; the kon is 658000 M⁻¹ s⁻¹. Besides, the “EC50 (read off the curve)” value with human 4-1BB-Fc protein is ~0.08 nM.

B4: 41B02 (anti-4-1BB monoclonal antibody) (antibody, V domains shown)
VH: EVQLLESGGGLVQPGGSLRLSCAASGFTFSGYDMSWVRQAPGKGLEWVSVIYPDDGNTYYADSVKGRFTISRDNSKNTLYLQMNSLRAEDAAVYYCAKHGGQKPTTKSSSAYGMDGWGQGTLVTVSS
VL: B3 VL
notes: Detected with anti-human IgG
In the case of B4, in [3], binding was put at a Kd of 1.01 nM, the koff came out at 0.000603 s⁻¹ and the kon came to 595000 M⁻¹ s⁻¹. Further, the “EC50 (read off the curve)” value with human 4-1BB-Fc protein is ~0.2 nM.

B5: ABLPNB.03 (H12x41B02; anti-PD-L1 H12 in IgG form and anti-4-1BB 41B02 in scFv form) (bispecific antibody)
heavy: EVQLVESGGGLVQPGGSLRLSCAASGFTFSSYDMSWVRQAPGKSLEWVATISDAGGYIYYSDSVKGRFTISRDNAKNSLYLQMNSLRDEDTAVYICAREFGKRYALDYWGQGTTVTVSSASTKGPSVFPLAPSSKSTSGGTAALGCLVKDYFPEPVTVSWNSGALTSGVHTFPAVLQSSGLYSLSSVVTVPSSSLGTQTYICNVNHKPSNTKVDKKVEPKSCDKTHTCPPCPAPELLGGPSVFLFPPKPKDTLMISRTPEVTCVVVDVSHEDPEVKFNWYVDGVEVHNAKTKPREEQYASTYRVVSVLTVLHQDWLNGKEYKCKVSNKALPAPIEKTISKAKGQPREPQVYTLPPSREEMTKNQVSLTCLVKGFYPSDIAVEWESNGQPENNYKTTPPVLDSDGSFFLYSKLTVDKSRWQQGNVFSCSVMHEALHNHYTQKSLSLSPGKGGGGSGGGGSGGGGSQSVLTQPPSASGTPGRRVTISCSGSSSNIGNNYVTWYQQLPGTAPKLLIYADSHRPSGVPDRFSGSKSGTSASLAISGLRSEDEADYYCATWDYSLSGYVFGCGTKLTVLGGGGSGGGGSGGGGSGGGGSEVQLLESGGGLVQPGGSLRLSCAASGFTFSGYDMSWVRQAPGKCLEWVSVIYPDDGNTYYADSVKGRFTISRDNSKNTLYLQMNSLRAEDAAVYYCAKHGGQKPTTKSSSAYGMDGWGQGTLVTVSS
light: DIQMTQSPSSLSASVGDRVTITCKASQDVTPAVAWYQQKPGKAPKLLIYSTSSRYTGVPSRFSGSGSGTDFTFTISSLQPEDIATYYCQQHYTTPLTFGQGTKLEIKRTVAAPSVFIFPPSDEQLKSGTASVVCLLNNFYPREAKVQWKVDNALQSGNSQESVTEQDSKDSTYSLSSTLTLSKADYEKHKVYACEVTHQGLSSPVTKSFNRGEC
notes: IgG x scFv form, IgG1 N297A backbone
For the molecule B5, in experiment [4], the “EC50 (read off the curve), NFkB-luc2/4-1BB Jurkat reporter with PD-L1 positive target cells” value (from here on “EC50 … with PD-L1 positive target cells”) was ~0.1 nM. In addition, the binding result in experiment [5] is “binds”.

B6: ABLPNB.05 (B6x41B01.01; anti-PD-L1 B6 in IgG form and anti-4-1BB 41B01.01 in scFv form) (bispecific antibody)
heavy: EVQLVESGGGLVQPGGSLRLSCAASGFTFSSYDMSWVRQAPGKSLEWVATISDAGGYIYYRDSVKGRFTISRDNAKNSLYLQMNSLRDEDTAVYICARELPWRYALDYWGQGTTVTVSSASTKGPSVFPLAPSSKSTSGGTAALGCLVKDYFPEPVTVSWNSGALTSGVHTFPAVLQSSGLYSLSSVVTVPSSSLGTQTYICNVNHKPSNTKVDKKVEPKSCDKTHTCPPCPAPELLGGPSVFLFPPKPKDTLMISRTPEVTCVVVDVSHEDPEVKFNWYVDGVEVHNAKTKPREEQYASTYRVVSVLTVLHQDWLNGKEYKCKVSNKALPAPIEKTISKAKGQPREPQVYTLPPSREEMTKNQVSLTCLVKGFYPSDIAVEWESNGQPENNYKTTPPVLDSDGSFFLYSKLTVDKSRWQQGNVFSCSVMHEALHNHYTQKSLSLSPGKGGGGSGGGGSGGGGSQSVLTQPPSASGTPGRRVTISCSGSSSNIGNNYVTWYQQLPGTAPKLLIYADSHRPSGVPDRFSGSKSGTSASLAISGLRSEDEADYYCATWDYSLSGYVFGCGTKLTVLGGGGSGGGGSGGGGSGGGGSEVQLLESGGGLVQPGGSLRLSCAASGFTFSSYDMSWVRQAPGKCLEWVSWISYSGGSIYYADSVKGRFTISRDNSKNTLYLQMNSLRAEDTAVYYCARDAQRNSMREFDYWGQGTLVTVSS
light: B5 light
notes: as for B5
For B6, the binding result in experiment [6] was “binds”.

B7: ABLPNB.08 (B6x41B01.04; anti-PD-L1 B6 in IgG form and anti-4-1BB 41B01.04 in scFv form) (bispecific antibody)
heavy: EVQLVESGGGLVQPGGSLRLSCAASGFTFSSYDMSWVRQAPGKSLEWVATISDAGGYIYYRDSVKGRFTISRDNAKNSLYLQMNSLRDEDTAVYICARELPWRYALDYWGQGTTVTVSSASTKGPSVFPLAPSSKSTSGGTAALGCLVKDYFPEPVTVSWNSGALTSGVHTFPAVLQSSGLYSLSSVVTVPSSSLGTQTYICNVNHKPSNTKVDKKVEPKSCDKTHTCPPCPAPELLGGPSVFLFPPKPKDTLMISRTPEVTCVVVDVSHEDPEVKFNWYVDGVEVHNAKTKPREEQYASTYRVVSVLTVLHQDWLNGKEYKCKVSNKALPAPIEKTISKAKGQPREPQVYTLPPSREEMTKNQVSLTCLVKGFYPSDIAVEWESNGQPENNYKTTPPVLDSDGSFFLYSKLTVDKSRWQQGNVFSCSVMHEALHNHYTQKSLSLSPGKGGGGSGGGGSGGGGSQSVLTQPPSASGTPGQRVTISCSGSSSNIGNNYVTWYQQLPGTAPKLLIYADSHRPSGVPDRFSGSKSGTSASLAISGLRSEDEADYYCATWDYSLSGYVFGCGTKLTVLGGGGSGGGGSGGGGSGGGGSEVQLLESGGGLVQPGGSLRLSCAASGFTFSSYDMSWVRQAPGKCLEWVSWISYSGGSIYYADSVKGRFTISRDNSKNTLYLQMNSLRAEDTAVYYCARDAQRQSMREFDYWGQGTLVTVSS
light: B5 light
notes: as for B5
On to B7, for which, in experiment [7], the “EC50 … with PD-L1 positive target cells” value was ~0.09 nM. Further, the binding result in experiment [6] is given as “binds”.

B8: ABLPNB.04 (B6x41B01; anti-PD-L1 B6 in IgG form and anti-4-1BB 41B01 in scFv form) (bispecific antibody)
heavy: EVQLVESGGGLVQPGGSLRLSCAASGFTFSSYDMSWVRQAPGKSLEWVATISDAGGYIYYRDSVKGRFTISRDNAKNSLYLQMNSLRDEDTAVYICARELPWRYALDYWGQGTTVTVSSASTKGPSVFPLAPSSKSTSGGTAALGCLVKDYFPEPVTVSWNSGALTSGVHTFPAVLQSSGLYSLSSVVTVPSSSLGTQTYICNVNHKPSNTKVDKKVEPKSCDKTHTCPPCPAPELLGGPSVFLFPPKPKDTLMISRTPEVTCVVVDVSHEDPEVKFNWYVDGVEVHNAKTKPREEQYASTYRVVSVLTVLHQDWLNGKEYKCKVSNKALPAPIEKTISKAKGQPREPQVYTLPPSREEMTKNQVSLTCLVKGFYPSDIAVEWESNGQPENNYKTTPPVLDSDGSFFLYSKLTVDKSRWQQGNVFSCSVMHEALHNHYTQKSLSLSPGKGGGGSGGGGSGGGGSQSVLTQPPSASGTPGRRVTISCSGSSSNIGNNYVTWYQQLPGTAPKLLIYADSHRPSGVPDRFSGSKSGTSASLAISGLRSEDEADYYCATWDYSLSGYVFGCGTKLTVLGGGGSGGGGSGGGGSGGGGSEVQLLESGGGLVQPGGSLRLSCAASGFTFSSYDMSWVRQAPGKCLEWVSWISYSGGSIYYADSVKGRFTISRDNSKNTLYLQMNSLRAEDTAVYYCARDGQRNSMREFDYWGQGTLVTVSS
light: B5 light
notes: as for B5
On to B8, for which, in experiment [8], the binding result was “binds”. In addition, in experiment [9], the “EC50 (read off the curve)” value is ~0.6 nM.

B9: ABLPNB.07 (B6x41B01.03; anti-PD-L1 B6 in IgG form and anti-4-1BB 41B01.03 in scFv form) (bispecific antibody)
heavy: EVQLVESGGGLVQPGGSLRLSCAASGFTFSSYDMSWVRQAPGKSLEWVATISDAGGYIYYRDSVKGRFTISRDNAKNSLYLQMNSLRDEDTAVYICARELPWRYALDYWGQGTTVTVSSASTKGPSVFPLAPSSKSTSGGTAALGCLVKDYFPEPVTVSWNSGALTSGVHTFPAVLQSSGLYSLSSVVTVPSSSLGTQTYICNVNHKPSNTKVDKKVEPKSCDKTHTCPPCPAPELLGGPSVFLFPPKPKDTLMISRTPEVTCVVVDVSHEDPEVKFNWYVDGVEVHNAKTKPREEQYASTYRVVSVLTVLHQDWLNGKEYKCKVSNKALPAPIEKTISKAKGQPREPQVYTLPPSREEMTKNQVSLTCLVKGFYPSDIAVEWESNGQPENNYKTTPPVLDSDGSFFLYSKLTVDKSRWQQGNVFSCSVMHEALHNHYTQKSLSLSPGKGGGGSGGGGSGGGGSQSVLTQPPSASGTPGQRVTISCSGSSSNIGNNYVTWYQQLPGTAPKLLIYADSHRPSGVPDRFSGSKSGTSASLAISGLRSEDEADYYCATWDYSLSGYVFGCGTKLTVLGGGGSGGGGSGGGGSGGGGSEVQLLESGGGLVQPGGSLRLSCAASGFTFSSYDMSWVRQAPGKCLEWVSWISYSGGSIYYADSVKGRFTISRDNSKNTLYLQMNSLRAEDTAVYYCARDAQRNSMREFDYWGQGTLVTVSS
light: B5 light
notes: as for B5
On to B9, for which, in experiment [7], the “EC50 … with PD-L1 positive target cells” value is ~0.06 nM. In addition, the figures for the concentration giving a half-maximal response (EC50 (read off the curve)) in experiment [9] and in experiment [10] were ~0.9 nM and ~0.2 nM, respectively.

B10: ABLPNB.01 (H12x41B01; anti-PD-L1 H12 in IgG form and anti-4-1BB 41B01 in scFv form) (bispecific antibody)
heavy: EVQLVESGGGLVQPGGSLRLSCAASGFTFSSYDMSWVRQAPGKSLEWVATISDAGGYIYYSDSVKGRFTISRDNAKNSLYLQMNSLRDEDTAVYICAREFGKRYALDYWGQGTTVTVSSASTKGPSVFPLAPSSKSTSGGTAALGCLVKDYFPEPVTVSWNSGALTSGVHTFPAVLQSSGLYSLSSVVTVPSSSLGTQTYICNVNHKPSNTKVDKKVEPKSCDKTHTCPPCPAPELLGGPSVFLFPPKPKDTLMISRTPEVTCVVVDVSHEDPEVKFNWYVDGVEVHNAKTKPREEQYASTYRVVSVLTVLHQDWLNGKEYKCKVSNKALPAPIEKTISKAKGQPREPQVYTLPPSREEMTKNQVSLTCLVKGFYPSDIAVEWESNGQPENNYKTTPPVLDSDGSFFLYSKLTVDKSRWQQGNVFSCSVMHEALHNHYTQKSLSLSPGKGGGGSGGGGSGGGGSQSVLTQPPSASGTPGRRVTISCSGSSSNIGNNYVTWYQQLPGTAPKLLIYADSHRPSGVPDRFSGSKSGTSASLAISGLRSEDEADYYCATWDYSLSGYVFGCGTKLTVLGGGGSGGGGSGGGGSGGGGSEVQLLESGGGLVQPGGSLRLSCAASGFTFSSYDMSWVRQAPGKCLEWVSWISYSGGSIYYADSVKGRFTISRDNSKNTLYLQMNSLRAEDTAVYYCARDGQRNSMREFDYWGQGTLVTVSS
light: B5 light
notes: IgG x scFv form; The heavy component is the H12 heavy chain (IgG1 N297A), a linker, and the scFv (VL-linker-VH, disulfide VL103-VH44)
As for B10, the binding result in [5] and in experiment [8] was “binds” in each case.

B11: ABLPNB.06 (anti-PD-L1 B6 in IgG form and anti-4-1BB 41B01.02 in scFv form) (bispecific antibody)
heavy: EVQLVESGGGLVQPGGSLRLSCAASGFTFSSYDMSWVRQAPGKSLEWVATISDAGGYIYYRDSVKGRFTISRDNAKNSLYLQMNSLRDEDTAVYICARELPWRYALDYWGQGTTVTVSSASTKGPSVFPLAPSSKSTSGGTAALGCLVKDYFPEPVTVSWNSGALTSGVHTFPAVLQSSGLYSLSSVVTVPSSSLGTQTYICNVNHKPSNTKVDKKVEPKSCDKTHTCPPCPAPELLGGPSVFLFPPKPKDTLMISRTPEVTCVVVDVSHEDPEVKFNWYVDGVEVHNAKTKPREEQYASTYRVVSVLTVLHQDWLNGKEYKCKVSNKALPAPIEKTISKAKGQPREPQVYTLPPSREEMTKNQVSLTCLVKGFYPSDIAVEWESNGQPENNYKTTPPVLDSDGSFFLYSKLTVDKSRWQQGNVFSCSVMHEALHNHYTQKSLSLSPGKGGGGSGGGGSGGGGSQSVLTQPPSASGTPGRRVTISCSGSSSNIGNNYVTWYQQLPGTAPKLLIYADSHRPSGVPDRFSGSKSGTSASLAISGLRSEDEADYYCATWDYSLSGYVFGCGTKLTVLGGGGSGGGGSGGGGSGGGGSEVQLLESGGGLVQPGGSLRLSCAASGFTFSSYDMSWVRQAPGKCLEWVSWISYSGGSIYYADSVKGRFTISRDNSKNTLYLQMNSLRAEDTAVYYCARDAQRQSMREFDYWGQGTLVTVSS
light: B5 light
notes: as for B5
For B11, the binding result in experiment [11] and in experiment [6] was “binds” throughout.
